Reference: paper PMC3472097 (Structure (London, England : 1993), 2012)
Values belong to the binder of their own block, whether it stands above or below them.

Molecular target: protein phosphatase 1 alpha (PP1α), residues 7-330, recombinant (UniProt P62136 7-330)
Assay: ITC

Chain of protein phosphatase 1 alpha (PP1α), residues 7-330, recombinant (P62136 7-330): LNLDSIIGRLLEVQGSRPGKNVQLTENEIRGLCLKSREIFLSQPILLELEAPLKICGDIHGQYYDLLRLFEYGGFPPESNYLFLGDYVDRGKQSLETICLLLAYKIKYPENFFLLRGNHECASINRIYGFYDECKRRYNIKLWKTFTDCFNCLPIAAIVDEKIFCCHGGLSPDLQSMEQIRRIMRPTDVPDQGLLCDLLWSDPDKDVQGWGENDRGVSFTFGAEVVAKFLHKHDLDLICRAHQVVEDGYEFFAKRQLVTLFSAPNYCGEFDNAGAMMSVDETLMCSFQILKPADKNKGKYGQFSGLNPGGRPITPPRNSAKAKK

Kd: 73 nM
B1: NIPP1 PP1-binding domain, residues 144-225 (domain or fragment, UniProt Q12972 144-225, looked up)
chain: GGEDDELKGLLGLPEEETELDNLTEFNTAHNKRISTLTIEEGNLDIQRPKRKRKNSRVTFSEDDEIINPEDVDPSVGRFRNM

Kd: 17.8 nM
B2: nuclear inhibitor of PP1 (NIPP1), residues 1-225 (FHA domain and PP1-binding domain) (domain or fragment, UniProt Q12972 1-225, looked up)
chain: MAAAANSGSSLPLFDCPTWAGKPPPGLHLDVVKGDKLIEKLIIDEKKYYLFGRNPDLCDFTIDHQSCSRVHAALVYHKHLKRVFLIDLNSTHGTFLGHIRLEPHKPQQIPIDSTVSFGASTRAYTLREKPQTLPSAVKGDEKMGGEDDELKGLLGLPEEETELDNLTEFNTAHNKRISTLTIEEGNLDIQRPKRKRKNSRVTFSEDDEIINPEDVDPSVGRFRNM

Kd: 104 nM
B3: NIPP1 PP1-binding domain, residues 158-216 (domain or fragment, UniProt Q12972 158-216, looked up)
chain: EEETELDNLTEFNTAHNKRISTLTIEEGNLDIQRPKRKRKNSRVTFSEDDEIINPEDVD
